Experimental data: the supplement of paper PMC10065799, “High-throughput profiling of sequence recognition by tyrosine kinases and SH2 domains using bacterial peptide display” (eLife, 2023)

Key:
Grb2 SH2 = Grb2 SH2 (UniProt P62993); assay: SH2 binding enrichment of the phosphorylated peptide, bacterial display (enrichment ratio); higher = better substrate or ligand; peptides without Tyr show the background
c-Src SH2 = assay: as above
SHP2-C SH2 = assay: as above
Hck = Hck (UniProt P08631); assay: phosphorylation enrichment, bacterial display (enrichment ratio); higher = better substrate or ligand; peptides without Tyr show the background
EPHB2 = EPHB2 (UniProt P29323); assay: as above
Jak2 = Jak2 (UniProt O60674); assay: as above
Fer (mouse) = assay: as above
FGFR3 = FGFR3 (UniProt P22607); assay: as above
AncSZ = assay: as above
FGFR1 = FGFR1 (UniProt P11362); assay: as above
c-Src = assay: as above
MERTK = MERTK (UniProt Q12866); assay: as above
EPHB1 = EPHB1 (UniProt P54762); assay: as above
Fyn = Fyn (UniProt P06241); assay: as above
Fes = Fes (UniProt P07332); assay: as above
c-Abl (mouse) = assay: as above
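Throughout, for SH2 binding enrichment of the phosphorylated peptide, bacterial display: peptide library displayed on the E. coli surface as eCPX fusions, selected cells deep-sequenced, score is each peptide's frequency after selection divided by its frequency in the input.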
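Throughout, for phosphorylation enrichment, bacterial display: 11-residue human phosphosite peptides and single-mutation variants displayed on the E. coli surface, counted by deep sequencing, each peptide's frequency after selection divided by its frequency in the unselected input library; frequency after pTyr selection over input frequency; kinase dosed for 20-30% of maximal phosphorylation in three min.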

Fyn, sequence (P06241 whole entry, looked up): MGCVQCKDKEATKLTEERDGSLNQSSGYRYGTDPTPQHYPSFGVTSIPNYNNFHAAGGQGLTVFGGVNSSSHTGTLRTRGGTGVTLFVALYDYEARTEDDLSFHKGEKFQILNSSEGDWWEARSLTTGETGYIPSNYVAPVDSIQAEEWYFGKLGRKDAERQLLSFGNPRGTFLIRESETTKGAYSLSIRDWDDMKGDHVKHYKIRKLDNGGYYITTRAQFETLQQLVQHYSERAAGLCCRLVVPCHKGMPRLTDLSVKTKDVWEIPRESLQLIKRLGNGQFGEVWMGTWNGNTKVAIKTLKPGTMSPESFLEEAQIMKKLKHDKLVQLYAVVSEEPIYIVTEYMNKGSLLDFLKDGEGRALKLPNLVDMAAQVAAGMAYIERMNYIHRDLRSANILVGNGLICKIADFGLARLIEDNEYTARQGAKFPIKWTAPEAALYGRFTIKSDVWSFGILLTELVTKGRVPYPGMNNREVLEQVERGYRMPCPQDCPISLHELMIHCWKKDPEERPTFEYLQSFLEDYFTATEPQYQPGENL
Fes, sequence (P07332 whole entry, looked up): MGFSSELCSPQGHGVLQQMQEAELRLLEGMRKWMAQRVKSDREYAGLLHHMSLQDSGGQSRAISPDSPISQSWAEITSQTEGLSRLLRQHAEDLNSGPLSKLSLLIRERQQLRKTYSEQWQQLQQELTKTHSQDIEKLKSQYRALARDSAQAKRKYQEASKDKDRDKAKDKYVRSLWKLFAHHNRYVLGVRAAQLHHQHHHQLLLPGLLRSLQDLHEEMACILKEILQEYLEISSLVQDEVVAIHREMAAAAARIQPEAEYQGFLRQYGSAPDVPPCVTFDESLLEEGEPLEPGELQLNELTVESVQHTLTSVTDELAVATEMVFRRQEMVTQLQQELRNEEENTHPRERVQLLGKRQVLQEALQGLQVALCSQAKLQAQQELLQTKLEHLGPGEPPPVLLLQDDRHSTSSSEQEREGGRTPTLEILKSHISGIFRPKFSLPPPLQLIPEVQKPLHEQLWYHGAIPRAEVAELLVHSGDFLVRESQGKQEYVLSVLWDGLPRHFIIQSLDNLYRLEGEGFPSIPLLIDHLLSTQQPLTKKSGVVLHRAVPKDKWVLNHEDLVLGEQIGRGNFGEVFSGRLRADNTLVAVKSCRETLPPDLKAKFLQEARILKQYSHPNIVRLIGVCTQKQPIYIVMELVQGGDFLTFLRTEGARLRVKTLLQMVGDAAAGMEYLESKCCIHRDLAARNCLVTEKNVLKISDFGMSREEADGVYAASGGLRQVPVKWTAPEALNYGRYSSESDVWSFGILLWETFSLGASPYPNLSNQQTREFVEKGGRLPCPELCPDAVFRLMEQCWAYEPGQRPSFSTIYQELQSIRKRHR
FGFR3, sequence (P22607 whole entry, looked up): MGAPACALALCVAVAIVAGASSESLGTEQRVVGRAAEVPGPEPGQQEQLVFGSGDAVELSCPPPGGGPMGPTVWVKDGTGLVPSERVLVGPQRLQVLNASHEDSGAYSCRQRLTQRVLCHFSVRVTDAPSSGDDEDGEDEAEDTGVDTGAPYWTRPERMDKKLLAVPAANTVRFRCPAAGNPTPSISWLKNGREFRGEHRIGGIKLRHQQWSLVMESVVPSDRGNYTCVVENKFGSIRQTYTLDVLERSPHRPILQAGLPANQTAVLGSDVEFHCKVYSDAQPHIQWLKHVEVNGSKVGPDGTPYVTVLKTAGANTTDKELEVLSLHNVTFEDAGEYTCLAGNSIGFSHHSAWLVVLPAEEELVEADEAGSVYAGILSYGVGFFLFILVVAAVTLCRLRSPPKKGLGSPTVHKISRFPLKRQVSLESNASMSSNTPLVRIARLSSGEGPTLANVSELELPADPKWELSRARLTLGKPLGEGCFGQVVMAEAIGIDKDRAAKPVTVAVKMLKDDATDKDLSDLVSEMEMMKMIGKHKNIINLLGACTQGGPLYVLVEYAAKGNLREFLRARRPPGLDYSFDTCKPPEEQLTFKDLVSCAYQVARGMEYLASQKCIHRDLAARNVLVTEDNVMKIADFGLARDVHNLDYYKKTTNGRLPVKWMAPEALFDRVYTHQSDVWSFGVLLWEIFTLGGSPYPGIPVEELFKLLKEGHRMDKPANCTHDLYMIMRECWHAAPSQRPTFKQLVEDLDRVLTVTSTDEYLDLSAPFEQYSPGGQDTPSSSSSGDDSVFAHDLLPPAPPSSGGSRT
Hck, sequence (P08631 whole entry, looked up): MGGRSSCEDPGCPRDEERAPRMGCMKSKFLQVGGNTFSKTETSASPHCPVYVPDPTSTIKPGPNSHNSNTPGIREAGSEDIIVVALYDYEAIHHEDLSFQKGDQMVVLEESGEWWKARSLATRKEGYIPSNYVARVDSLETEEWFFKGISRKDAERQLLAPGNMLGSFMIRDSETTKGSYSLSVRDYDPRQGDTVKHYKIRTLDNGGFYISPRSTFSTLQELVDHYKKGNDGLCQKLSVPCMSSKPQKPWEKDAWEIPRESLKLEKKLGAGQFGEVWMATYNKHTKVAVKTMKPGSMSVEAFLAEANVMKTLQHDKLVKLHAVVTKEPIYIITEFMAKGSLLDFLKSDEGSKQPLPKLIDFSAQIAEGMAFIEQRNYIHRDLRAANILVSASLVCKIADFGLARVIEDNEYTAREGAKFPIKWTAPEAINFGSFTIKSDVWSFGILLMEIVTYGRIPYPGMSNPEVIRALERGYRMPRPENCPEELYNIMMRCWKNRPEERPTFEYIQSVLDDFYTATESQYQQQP
MERTK, sequence (Q12866 whole entry, looked up): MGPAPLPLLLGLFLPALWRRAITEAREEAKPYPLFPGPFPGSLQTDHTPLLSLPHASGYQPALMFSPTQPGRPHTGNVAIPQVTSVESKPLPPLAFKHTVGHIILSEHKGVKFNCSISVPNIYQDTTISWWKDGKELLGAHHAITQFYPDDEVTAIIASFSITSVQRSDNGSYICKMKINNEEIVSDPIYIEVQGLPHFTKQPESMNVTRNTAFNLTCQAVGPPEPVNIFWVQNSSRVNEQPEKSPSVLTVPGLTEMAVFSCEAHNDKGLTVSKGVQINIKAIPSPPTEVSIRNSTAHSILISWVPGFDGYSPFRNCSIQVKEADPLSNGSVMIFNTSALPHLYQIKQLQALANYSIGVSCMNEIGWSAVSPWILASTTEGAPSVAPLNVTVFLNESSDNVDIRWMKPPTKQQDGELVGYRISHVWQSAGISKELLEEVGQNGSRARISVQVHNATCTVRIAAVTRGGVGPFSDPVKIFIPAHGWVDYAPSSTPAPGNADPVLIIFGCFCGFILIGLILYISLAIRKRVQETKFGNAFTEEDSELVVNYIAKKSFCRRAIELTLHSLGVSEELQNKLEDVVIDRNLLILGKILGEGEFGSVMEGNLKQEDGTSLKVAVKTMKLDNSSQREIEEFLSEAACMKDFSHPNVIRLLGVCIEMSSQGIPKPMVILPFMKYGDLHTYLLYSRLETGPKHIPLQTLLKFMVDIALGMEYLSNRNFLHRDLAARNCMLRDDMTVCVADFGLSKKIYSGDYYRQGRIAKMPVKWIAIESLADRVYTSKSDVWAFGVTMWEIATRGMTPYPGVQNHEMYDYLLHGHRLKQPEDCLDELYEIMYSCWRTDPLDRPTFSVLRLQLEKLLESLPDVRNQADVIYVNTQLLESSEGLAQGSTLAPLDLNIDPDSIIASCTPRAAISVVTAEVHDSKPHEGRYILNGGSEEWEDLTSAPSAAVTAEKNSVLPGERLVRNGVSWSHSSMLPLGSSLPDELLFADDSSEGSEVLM
Jak2, sequence (O60674 whole entry, looked up): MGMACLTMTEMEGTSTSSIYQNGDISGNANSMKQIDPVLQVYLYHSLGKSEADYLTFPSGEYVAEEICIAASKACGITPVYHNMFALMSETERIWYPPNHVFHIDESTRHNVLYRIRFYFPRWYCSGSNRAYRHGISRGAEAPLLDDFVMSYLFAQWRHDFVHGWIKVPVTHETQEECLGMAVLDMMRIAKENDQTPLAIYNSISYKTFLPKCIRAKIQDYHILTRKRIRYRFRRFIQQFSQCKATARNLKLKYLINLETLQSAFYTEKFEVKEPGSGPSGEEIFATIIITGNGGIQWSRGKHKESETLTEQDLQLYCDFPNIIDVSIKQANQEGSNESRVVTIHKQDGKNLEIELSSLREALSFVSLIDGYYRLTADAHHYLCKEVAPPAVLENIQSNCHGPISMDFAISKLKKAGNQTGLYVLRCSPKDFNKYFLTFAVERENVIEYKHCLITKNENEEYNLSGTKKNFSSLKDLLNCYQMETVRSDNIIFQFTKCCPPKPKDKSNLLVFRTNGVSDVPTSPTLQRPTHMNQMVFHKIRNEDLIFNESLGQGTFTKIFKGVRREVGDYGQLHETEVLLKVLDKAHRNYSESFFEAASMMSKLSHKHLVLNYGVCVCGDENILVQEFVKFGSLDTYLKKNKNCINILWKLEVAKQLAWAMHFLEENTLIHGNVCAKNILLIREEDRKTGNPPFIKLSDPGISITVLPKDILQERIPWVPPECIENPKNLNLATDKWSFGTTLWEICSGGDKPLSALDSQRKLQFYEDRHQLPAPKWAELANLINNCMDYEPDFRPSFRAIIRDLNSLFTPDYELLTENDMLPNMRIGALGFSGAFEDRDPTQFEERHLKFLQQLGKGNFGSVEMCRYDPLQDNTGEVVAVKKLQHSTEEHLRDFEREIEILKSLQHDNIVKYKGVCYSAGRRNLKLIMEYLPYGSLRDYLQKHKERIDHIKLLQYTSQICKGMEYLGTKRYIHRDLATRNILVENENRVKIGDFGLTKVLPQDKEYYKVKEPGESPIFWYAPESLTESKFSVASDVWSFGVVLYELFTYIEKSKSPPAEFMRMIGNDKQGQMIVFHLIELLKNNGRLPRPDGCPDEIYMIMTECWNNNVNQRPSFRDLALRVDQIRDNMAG

Row | SH2 binding enrichment (Grb2 SH2) | SH2 binding enrichment (c-Src SH2) | SH2 binding enrichment (SHP2-C SH2) | Sequence | phosphorylation enrichment (Hck) | phosphorylation enrichment (EPHB2) | phosphorylation enrichment (Jak2) | phosphorylation enrichment (Fer (mouse)) | phosphorylation enrichment (FGFR3) | phosphorylation enrichment (AncSZ) | phosphorylation enrichment (FGFR1) | phosphorylation enrichment (c-Src) | phosphorylation enrichment (MERTK) | phosphorylation enrichment (EPHB1) | phosphorylation enrichment (Fyn) | phosphorylation enrichment (Fes) | phosphorylation enrichment (c-Abl (mouse))
1 | 0.796 | 1.1 | 0.688 | DSYSSYCNAVA [SLC20A2_Y436] | 0.788 | 0.995 | 0.859 | 0.687 | 0.664 | 1.44 | 0.904 | 0.84 | 0.788 | 0.729 | 0.819 | 1.23 | 0.771
2 | 0.893 | 0.448 | 0.787 | DVELLYPLKEK [EPHX1_Y283_V285L] | 0.495 | 0.438 | 0.866 | 0.422 | 0.751 | 1.08 | 0.452 | 0.439 | 0.426 | 0.395 | 0.484 | 1 | 0.695
3 | 0.82 | 0.476 | 0.791 | DVYVSYDCGKS [SORL1_Y139_Y141C] | 3.12 | 1.93 | 0.895 | 0.985 | 1.81 | 1.6 | 1.79 | 3.94 | 1.04 | 1.47 | 6.11 | 1.1 | 0.862
4 | 0.839 | 0.724 | 0.525 | DYCDLYGGEKF [PTPN11_Y66_Y63C] | 2.31 | 2.14 | 0.914 | 0.967 | 2.56 | 1.72 | 3.45 | 2.39 | 0.477 | 2.93 | 1.39 | 1.05 | 0.747
5 | 0.86 | 0.666 | 0.865 | DYYDLYGGQKF [PTPN11_Y66_E69Q] | 8.28 | 8.29 | 5.14 | 2.32 | 13.5 | 2.69 | 15.9 | 6.47 | 5.66 | 8.34 | 7.93 | 1.02 | 0.814
6 | 0.804 | 0.483 | 0.739 | EAEALYQTTFQ [KRT73_Y325_K328T] | 4.59 | 1.53 | 1.13 | 11.9 | 0.972 | 1.98 | 0.644 | 4.32 | 4.9 | 1.27 | 3.38 | 1.27 | 2.1
7 | 0.635 | 0.458 | 0.643 | EALDFYGEVRT [PTEN_Y155] | 0.918 | 0.65 | 1.51 | 0.707 | 0.872 | 1.23 | 0.501 | 1.01 | 0.37 | 0.829 | 1 | 1.39 | 0.825
8 | 0.852 | 0.438 | 1.05 | EAMSDYKKQLR [SPATA18_Y229] | 0.383 | 0.413 | 0.563 | 0.405 | 0.605 | 0.594 | 0.378 | 0.452 | 0.393 | 0.418 | 0.316 | 0.651 | 0.442
9 | 0.977 | 0.445 | 0.561 | EARRVYGDIIH [ALDH5A1_Y175] | 0.42 | 0.378 | 0.517 | 0.477 | 0.447 | 0.608 | 0.426 | 0.499 | 0.408 | 0.41 | 0.514 | 0.707 | 0.596
10 | 0.981 | 0.655 | 0.685 | EEEFFYEKAIL [BCCIP_Y257] | 0.811 | 0.648 | 1.34 | 5.34 | 0.895 | 1.93 | 0.671 | 0.89 | 0.847 | 0.622 | 0.633 | 1.55 | 1.1
11 | 0.815 | 0.443 | 0.595 | EEQKKNYNAMK [SCN5A_Y1494_Y1494N] | 0.351 | 0.364 | 0.55 | 0.336 | 0.399 | 0.572 | 0.433 | 0.415 | 0.395 | 0.389 | 0.291 | 0.663 | 0.497
12 | 0.82 | 0.497 | 0.617 | EEQKKYSNAMK [SCN5A_Y1494_Y1495S] | 0.37 | 0.539 | 0.56 | 0.353 | 0.529 | 0.611 | 0.456 | 0.404 | 0.327 | 0.429 | 0.377 | 0.723 | 0.772
13 | 0.81 | 0.562 | 0.668 | EESSHCSTEKE [ADAR_Y587_Y587C] | 0.598 | 0.683 | 0.8 | 0.424 | 0.663 | 1.06 | 0.593 | 0.5 | 0.502 | 0.631 | 0.598 | 1.01 | 0.559
14 | 0.732 | 0.491 | 0.521 | EEVGIYRVSGV [BCR_Y1089] | 3.09 | 0.434 | 0.794 | 0.504 | 0.647 | 1.04 | 0.457 | 4.45 | 0.575 | 0.488 | 4.31 | 0.919 | 14.1
15 | 0.686 | 0.546 | 0.508 | EFGRRYGFSRQ [CCDC93_Y209_YF] | 0.422 | 0.416 | 0.607 | 0.338 | 0.432 | 0.621 | 0.43 | 0.492 | 0.499 | 0.427 | 0.449 | 0.634 | 1.42
16 | 0.661 | 0.538 | 0.656 | EGQKIYIDDNS [PIP4K2A_Y246_N251S] | 0.465 | 0.549 | 0.886 | 0.459 | 0.645 | 0.862 | 0.446 | 0.526 | 0.461 | 0.499 | 0.53 | 1.09 | 0.689
17 | 0.727 | 0.592 | 0.882 | EIEFLYNENMV [IARS1_Y680_T684M] | 0.526 | 0.678 | 1.07 | 0.526 | 0.693 | 1.21 | 0.418 | 0.421 | 0.411 | 0.595 | 0.484 | 1.11 | 0.62

Row | SH2 binding enrichment (Grb2 SH2) | SH2 binding enrichment (c-Src SH2) | SH2 binding enrichment (SHP2-C SH2) | Sequence | phosphorylation enrichment (Hck) | phosphorylation enrichment (EPHB2) | phosphorylation enrichment (Jak2) | phosphorylation enrichment (Fer (mouse)) | phosphorylation enrichment (FGFR3) | phosphorylation enrichment (AncSZ) | phosphorylation enrichment (FGFR1) | phosphorylation enrichment (c-Src) | phosphorylation enrichment (MERTK) | phosphorylation enrichment (EPHB1) | phosphorylation enrichment (Fyn) | phosphorylation enrichment (Fes) | phosphorylation enrichment (c-Abl (mouse))
18 | 1.05 | 1.11 | 0.827 | EKFVPYFDLFM [IPO5_Y530_YF] | 0.581 | 0.652 | 1.32 | 0.608 | 1.71 | 1.33 | 1.74 | 0.596 | 0.444 | 1.06 | 0.57 | 1.35 | 0.858
19 | 0.947 | 0.645 | 0.806 | EKGSNYCLCRT [ASIC2_Y357_D354G] | 0.349 | 0.45 | 0.572 | 0.378 | 0.497 | 0.732 | 0.469 | 0.393 | 0.458 | 0.47 | 0.504 | 0.607 | 0.56
20 | 0.927 | 0.548 | 0.746 | EKLQKYYRQNP [EHHADH_Y682] | 0.408 | 0.543 | 0.55 | 0.367 | 0.497 | 0.523 | 0.509 | 0.428 | 0.371 | 0.568 | 0.391 | 0.667 | 0.581
21 | 0.963 | 0.538 | 0.774 | EKNANYKEGTY [CLRN1_Y171_I168N] | 0.356 | 0.387 | 0.575 | 0.363 | 0.4 | 0.517 | 0.383 | 0.426 | 0.372 | 0.378 | 0.403 | 0.617 | 0.451
22 | 0.881 | 0.467 | 0.631 | EKQLLYLENKT [FRK_Y132_S133L] | 0.459 | 0.44 | 0.672 | 0.405 | 0.589 | 0.712 | 0.398 | 0.356 | 0.337 | 0.567 | 0.467 | 0.985 | 0.41
23 | 0.901 | 0.481 | 1.01 | ELANFYKLHHI [AK7_Y391_YF] | 0.796 | 0.863 | 0.922 | 0.874 | 0.672 | 0.63 | 0.561 | 0.819 | 0.67 | 0.638 | 0.689 | 1.06 | 0.8
24 | 0.869 | 0.816 | 0.835 | ELANLYHHVWM [BICD2_Y538_C542W] | 5.11 | 1.93 | 1.3 | 12.9 | 4.76 | 1.32 | 6.38 | 2.51 | 6.21 | 6.35 | 2.75 | 1.25 | 0.918
25 | 0.907 | 0.747 | 0.665 | ELQDDYEDMME [SLC4A1_Y8] | 0.659 | 0.558 | 0.956 | 0.549 | 0.718 | 1.16 | 0.566 | 0.415 | 0.451 | 0.646 | 0.542 | 1.07 | 0.56
26 | 0.752 | 0.475 | 0.563 | ENSLDYGSAWA [AR_Y395_P392S] | 0.566 | 0.677 | 0.864 | 0.457 | 0.591 | 1.04 | 0.467 | 0.514 | 0.462 | 0.486 | 0.556 | 0.975 | 0.638
27 | 0.821 | 0.515 | 0.615 | EQMASYSGHSV [ITGA2B_Y319_F320S] | 0.488 | 0.363 | 0.736 | 0.734 | 0.406 | 0.496 | 0.384 | 0.37 | 0.337 | 0.298 | 0.449 | 0.543 | 0.493
28 | 0.799 | 0.357 | 0.5 | EQMLEYMEQLQ [CFAP45_Y289] | 0.638 | 0.561 | 1.1 | 0.526 | 0.846 | 1.21 | 0.764 | 0.505 | 0.494 | 0.579 | 0.549 | 0.994 | 0.532
29 | 0.852 | 0.58 | 0.63 | EQQDMYRLKVL [ABCC6_Y372_N370D] | 0.427 | 0.482 | 0.638 | 0.473 | 0.581 | 0.774 | 0.451 | 0.415 | 0.376 | 0.354 | 0.387 | 0.773 | 0.453
30 | 1.07 | 0.585 | 0.976 | ERCAQYKKDVA [ALDOA_Y138_G142V] | 0.525 | 0.607 | 0.65 | 0.45 | 0.604 | 0.726 | 0.579 | 0.491 | 0.385 | 0.527 | 0.596 | 1.05 | 0.624
31 | 1.14 | 0.69 | 0.715 | ERDFTYEELLN [EIF2S2_Y176_YF] | 0.855 | 0.515 | 1.01 | 0.69 | 0.692 | 1.23 | 0.527 | 0.675 | 0.492 | 0.628 | 0.678 | 1.12 | 0.66
32 | 0.788 | 0.465 | 0.856 | EREFKYGAHNH [OAT_Y50_Y55H_YF] | 0.29 | 0.228 | 0.376 | 0.441 | 0.368 | 0.524 | 0.336 | 0.319 | 0.439 | 0.474 | 0.307 | 0.545 | 0.44
33 | 0.796 | 0.427 | 0.68 | ERFSFYGMKAV [SLC15A2_Y61_YF] | 0.546 | 0.605 | 1.02 | 0.554 | 0.84 | 1.08 | 0.505 | 0.455 | 0.383 | 0.647 | 0.439 | 1.56 | 0.812
